Source: the Human Domainome abundance scans (Beltran et al. 2025)
± gives the uncertainty stated by the source.

B1: Lysine-specific demethylase 2B, residues 656 to 722; numbered along this chain, Q8NHM5 (parent)
chain: LPHTAVCLVCGEAGKEDTVEEEEGKFNLMLMECSICNEIIHPGCLKIKESEGVVNDELPNCWECPKC

Variants of: B1
Experiment: abundance fitness (aPCA) (normalised: wild type 0, dead -1); higher = more abundant; growth selection in yeast, the domain comes from the species named
Conditions: Homo sapiens

Variant	abundance fitness
E49M	-0.005 ± 0.18
E49W	-0.235 ± 0.12
E49I	-0.244 ± 0.19
E49R	-0.103 ± 0.053
E49Q	-0.079 ± 0.073
E49K	-0.123 ± 0.13
E49T	0.045 ± 0.07
E49G	0.008 ± 0.051
E49S	-0.061 ± 0.088
E49D	-0.198 ± 0.21
E49P	0.024 ± 0.094
E49A	0.104 ± 0.082
E49N	0.262 ± 0.45
E49C	-0.039 ± 0.11
E49L	-0.077 ± 0.075
E49Y	-0.187 ± 0.2
L58A	-0.454 ± 0.23
L58W	-0.149 ± 0.095
L58G	-0.171 ± 0.078
L58C	0.066 ± 0.15
L58V	-0.036 ± 0.078
L58H	0.194 ± 0.16
L58K	0.14 ± 0.12
L58S	0.051 ± 0.088

Variant	abundance fitness
L58T	0.206 ± 0.096
L58P	-0.408 ± 0.16
L58E	0.011 ± 0.13
L58Q	-0.107 ± 0.16
L58R	0.076 ± 0.082
K66D	-0.064 ± 0.16
K66A	-0.425 ± 0.18
K66G	-0.263 ± 0.12
K66C	-0.819 ± 0.41
K66L	-0.705 ± 0.18
K66E	-0.058 ± 0.21
N55W	-0.389 ± 0.19
N55E	-0.165 ± 0.13
N55K	-0.591 ± 0.34
N55Y	-0.386 ± 0.44
N55H	0.049 ± 0.22
N55P	-0.227 ± 0.17
N55Q	-0.189 ± 0.22
N55S	0.087 ± 0.1
N55A	-0.089 ± 0.13
N55T	-0.101 ± 0.12
N55L	-0.188 ± 0.085
N55V	-0.236 ± 0.1
N55M	-0.203 ± 0.17

Variant	abundance fitness
N55R	-0.015 ± 0.09
N55D	-0.031 ± 0.35
N55C	-0.202 ± 0.37
N55G	-0.022 ± 0.11
K46P	0.077 ± 0.089
K46A	-0.01 ± 0.1
K46I	-0.311 ± 0.15
K46V	-0.058 ± 0.07
K46D	0.224 ± 0.18
K46S	0.206 ± 0.081
K46E	0.206 ± 0.14
K46Q	0.195 ± 0.12
K46H	-0.532 ± 0.28
K46Y	0.042 ± 0.43
K46R	0.016 ± 0.064
K46W	-0.148 ± 0.098
K46L	0.007 ± 0.08
K46T	0.211 ± 0.19
K46G	0.205 ± 0.078
D56Q	-0.049 ± 0.094
D56K	0.179 ± 0.13
D56I	-0.685 ± 0.46
D56P	0.099 ± 0.1
D56E	-0.075 ± 0.069

Variant	abundance fitness
D56R	0.123 ± 0.057
D56L	-0.114 ± 0.085
D56G	0.079 ± 0.072
D56Y	0.063 ± 0.2
D56A	0.001 ± 0.066
D56C	-0.233 ± 0.31
D56H	0.692 ± 0.48
D56M	0.123 ± 0.14
D56W	-0.401 ± 0.089
D56N	-0.017 ± 0.095
D56S	0.07 ± 0.077
D56T	0.069 ± 0.083
D56V	-0.102 ± 0.067
D56F	0.023 ± 0.23
P59K	0.076 ± 0.11
P59M	-0.183 ± 0.2
P59R	0.015 ± 0.077
P59F	-0.261 ± 0.16
P59V	0.007 ± 0.17
P59T	-0.012 ± 0.13
P59D	-0.424 ± 0.24
P59C	-0.076 ± 0.11
P59S	-0.071 ± 0.11
P59N	0.214 ± 0.14

Variant	abundance fitness
P59G	-0.076 ± 0.092
P59A	-0.117 ± 0.1
P59W	-0.319 ± 0.13
P59Q	-0.024 ± 0.26
P59E	0.249 ± 0.17
E63S	-0.223 ± 0.074
E63A	0.017 ± 0.14
E63T	0.102 ± 0.075
E63P	-0.968 ± 0.32
E63W	-0.386 ± 0.074
E63G	-0.252 ± 0.1
E63F	-0.407 ± 0.14
E63R	-0.031 ± 0.066
E63Q	-0.148 ± 0.14
E63K	0.146 ± 0.071
E63Y	-0.263 ± 0.23
E63M	-0.006 ± 0.1
E63L	-0.074 ± 0.078
E63N	-0.246 ± 0.12
E63C	-0.073 ± 0.12
E63V	0.039 ± 0.079
S50F	0.039 ± 0.2
S50Q	-0.111 ± 0.13
S50H	-0.208 ± 0.16

Variant	abundance fitness
S50G	0.169 ± 0.073
S50P	0.087 ± 0.13
S50V	0.039 ± 0.068
S50Y	0.312 ± 0.15
S50I	-0.036 ± 0.17
S50W	-0.156 ± 0.13
S50K	-0.025 ± 0.075
S50E	0.034 ± 0.13
S50M	-0.155 ± 0.18
S50R	-0.128 ± 0.08
S50D	0.085 ± 0.11
S50C	0.078 ± 0.084
C64P	-0.684 ± 0.23
C64T	-0.952 ± 0.22
C64G	-0.889 ± 0.1
C64Y	-0.804 ± 0.27
C64E	-0.718 ± 0.12
C64F	-0.719 ± 0.29
C64S	-0.797 ± 0.12
C64D	-0.85 ± 0.21
C64Q	-0.662 ± 0.2
C64R	-0.888 ± 0.093
C64L	-0.935 ± 0.12
C64H	0.218 ± 0.39

Variant	abundance fitness
C64W	-0.775 ± 0.17
C64A	-1.05 ± 0.21
C64K	-0.749 ± 0.15
C64I	-0.778 ± 0.36
C64V	-0.95 ± 0.16
C64M	-0.923 ± 0.2
N60K	-0.176 ± 0.12
N60F	0.153 ± 0.19
N60G	-0.062 ± 0.079
N60H	-0.127 ± 0.22
N60P	-0.128 ± 0.16
N60W	-0.176 ± 0.1
N60C	-0.368 ± 0.18
N60T	-0.091 ± 0.14
N60R	-0.044 ± 0.08
N60L	-0.3 ± 0.066
N60S	-0.166 ± 0.072
N60M	-0.234 ± 0.1
N60I	-0.186 ± 0.11
N60Q	-0.155 ± 0.14
N60E	-0.211 ± 0.098
V54I	0.126 ± 0.12
V54T	0.126 ± 0.12
V54A	0.089 ± 0.12

Variant	abundance fitness
V54Q	0.135 ± 0.49
V54G	-0.182 ± 0.08
V54W	-0.124 ± 0.21
V54S	-0.284 ± 0.16
V54D	-0.119 ± 0.11
V54C	-0.275 ± 0.16
V54R	0.042 ± 0.14
V54E	0.024 ± 0.12
V54P	-0.065 ± 0.25
V54K	-0.125 ± 0.1
C61M	-0.12 ± 0.12
C61Q	-0.08 ± 0.099
C61P	-0.054 ± 0.11
C61N	-0.675 ± 0.33
C61G	-0.192 ± 0.09
C61R	0.042 ± 0.072
C61Y	0.073 ± 0.17
C61F	-0.325 ± 0.19
C61K	0.005 ± 0.12
C61W	-0.171 ± 0.12
C61L	-0.04 ± 0.1
C61D	-0.475 ± 0.37
C61S	0.018 ± 0.1
C61T	0.248 ± 0.098

Variant	abundance fitness
C61E	-0.105 ± 0.09
C61H	0.309 ± 0.27
C61I	-0.349 ± 0.26
C61A	0.053 ± 0.096
P65E	-0.148 ± 0.12
P65Q	-0.454 ± 0.26
P65T	-0.634 ± 0.15
P65V	-0.503 ± 0.092
P65H	-0.289 ± 0.14
P65L	-0.606 ± 0.12
P65C	-0.384 ± 0.11
P65S	-0.177 ± 0.077
P65W	-0.432 ± 0.1
P65F	-0.401 ± 0.16
P65I	-0.899 ± 0.31
P65R	-0.364 ± 0.079
P65D	-0.547 ± 0.25
P65A	-0.133 ± 0.077
E51C	0.056 ± 0.16
E51T	0.072 ± 0.096
E51H	0.097 ± 0.1
E51M	-0.19 ± 0.093
E51V	-0.124 ± 0.076
E51R	-0.001 ± 0.066

Variant	abundance fitness
E51Q	-0.239 ± 0.18
E51W	-0.14 ± 0.12
E51K	-0.027 ± 0.19
E51L	-0.385 ± 0.11
E51Y	-0.172 ± 0.15
E51G	-0.197 ± 0.096
E51P	-0.328 ± 0.15
E51S	-0.131 ± 0.098
E51A	-0.044 ± 0.073
L45V	-0.092 ± 0.074
L45T	-0.085 ± 0.1
L45S	0.081 ± 0.097
L45Q	0.069 ± 0.16
L45W	-0.493 ± 0.15
L45P	-0.515 ± 0.19
L45I	-0.434 ± 0.41
L45R	-0.002 ± 0.056
L45K	-0.402 ± 0.058
L45M	0.032 ± 0.12
K48C	-0.179 ± 0.15
K48F	-0.078 ± 0.19
K48V	-0.261 ± 0.12
K48P	-0.159 ± 0.19
K48M	0.157 ± 0.11

Variant	abundance fitness
K48S	-0.155 ± 0.089
K48W	-0.119 ± 0.092
K48Q	0.108 ± 0.11
K48G	-0.056 ± 0.067
K48Y	0.011 ± 0.25
K48R	-0.168 ± 0.085
K48E	0.152 ± 0.1
K48N	0.222 ± 0.19
V53K	-0.167 ± 0.14
V53Q	0.164 ± 0.094
V53F	-0.343 ± 0.21
V53E	0.003 ± 0.11
V53N	-0.136 ± 0.21
V53A	0.047 ± 0.098
V53P	-0.15 ± 0.095
V53M	-0.045 ± 0.11
V53I	-0.07 ± 0.13
V53S	0.006 ± 0.1
V53H	-0.346 ± 0.2
V53R	-0.148 ± 0.073
V53C	-0.027 ± 0.16
V53G	-0.078 ± 0.096
V53T	0.078 ± 0.11
V53L	-0.119 ± 0.081

Variant	abundance fitness
G52K	-0.164 ± 0.093
G52T	-0.122 ± 0.1
G52S	-0.146 ± 0.12
G52Q	-0.094 ± 0.1
G52D	-0.121 ± 0.097
G52W	-0.365 ± 0.2
G52V	0.018 ± 0.095
G52R	0.067 ± 0.069
G52F	-0.028 ± 0.11
G52P	0.171 ± 0.1
G52C	-0.051 ± 0.2
G52I	-0.525 ± 0.24
G52N	-0.09 ± 0.32
G52A	0.224 ± 0.11
G52H	-0.086 ± 0.12
G52E	-0.016 ± 0.12
G52L	-0.142 ± 0.066
I47D	-0.261 ± 0.24
I47G	0.011 ± 0.087
I47C	-0.168 ± 0.11
I47S	-0.002 ± 0.076
I47Y	-0.007 ± 0.22
I47E	0.038 ± 0.11
I47K	-0.17 ± 0.13

Variant	abundance fitness
I47N	-0.307 ± 0.29
I47M	0.16 ± 0.097
I47H	-0.242 ± 0.28
I47R	-0.207 ± 0.067
I47V	0.006 ± 0.068
I47L	-0.133 ± 0.072
I47T	0.08 ± 0.11
I47F	-0.047 ± 0.19
I47A	-0.014 ± 0.11
I47Q	-0.167 ± 0.18
I47W	-0.09 ± 0.083
W62Q	-0.601 ± 0.28
W62H	-0.838 ± 0.31
W62A	-0.509 ± 0.082
W62T	-0.426 ± 0.15
W62L	-0.391 ± 0.096
W62R	-0.574 ± 0.11
W62E	-0.439 ± 0.11
W62S	-0.551 ± 0.12
W62I	-1 ± 0.39
W62N	-0.541 ± 0.13
W62G	-0.789 ± 0.1
W62F	-0.014 ± 0.34
W62M	-0.425 ± 0.14

Variant	abundance fitness
W62Y	-0.296 ± 0.42
W62C	-0.858 ± 0.26
W62K	-0.339 ± 0.17
W62P	-0.17 ± 0.12
W62V	-0.465 ± 0.074
E57M	-0.079 ± 0.14
E57W	-0.305 ± 0.11
E57G	-0.065 ± 0.062
E57R	-0.055 ± 0.067
E57D	0.103 ± 0.13
E57V	-0.168 ± 0.085
E57C	0.036 ± 0.14
E57L	-0.042 ± 0.087
E57I	-0.196 ± 0.16
E57F	-0.107 ± 0.14
E57H	0.001 ± 0.28
E57T	-0.007 ± 0.13
E57A	0.053 ± 0.083
E57P	-0.296 ± 0.18
E57Y	-0.179 ± 0.18
E57S	0.102 ± 0.087
E57Q	-0.118 ± 0.13
